Drawing on paper PMC12098869, “An mRNA-display derived cyclic peptide scaffold reveals the substrate binding interactions of an N-terminal cysteine oxidase” (Nature Communications, 2025), this text covers Kd for 1 molecule.

Several values for one entry are separate records, joined by “and”; a condition that tells them apart may be missing. Equal values may be shown once.

Common to all, as to assay: SPR; biotinylated ADO or ADO mutant immobilised on a Biotin CAP chip (~2500-3000 RU), substrate peptide injected; Biacore T200, 4 °C; 20 mM HEPES pH 7.5, 500 mM NaCl, 10 mM DTT, 0.1% tween-20; 50 µL/minute; multi-cycle or single-cycle mode not given; each cell is one of three independent measurements
Holding throughout (settings): both partners purified

For test [1], the target named is T1, ADO-F101A, N-terminally His-tagged and biotinylated (human, UniProt Q96SZ5 1-270, F101A, biotin (biotinylated during expression)).
T1 construct: 2-aminoethanethiol dioxygenase (ADO), human, UniProt Q96SZ5, full length, site-directed mutant; source: E. coli Rosetta2(DE3), purified (Ni-NTA, SEC); not shown: biotinylation tag (from the vector pQE80L-Navi), N-terminal, kept
T1 sequence (looked up): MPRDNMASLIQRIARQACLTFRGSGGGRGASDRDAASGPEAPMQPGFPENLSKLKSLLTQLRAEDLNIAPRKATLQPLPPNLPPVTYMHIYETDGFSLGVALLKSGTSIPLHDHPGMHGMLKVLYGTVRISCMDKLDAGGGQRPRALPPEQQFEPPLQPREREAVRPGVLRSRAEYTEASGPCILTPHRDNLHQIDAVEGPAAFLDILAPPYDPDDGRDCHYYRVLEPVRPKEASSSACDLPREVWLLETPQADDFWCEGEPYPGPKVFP

Test [2] concerns the target T2, ADO-Y222A, N-terminally His-tagged and biotinylated (human, UniProt Q96SZ5 1-270, Y222A, biotin (biotinylated during expression)).
T2 construct: 2-aminoethanethiol dioxygenase (ADO), human, UniProt Q96SZ5, full length, site-directed mutant; source: E. coli Rosetta2(DE3), purified (Ni-NTA, SEC); not shown: biotinylation tag (from the vector pQE80L-Navi), N-terminal, kept
T2 sequence (looked up): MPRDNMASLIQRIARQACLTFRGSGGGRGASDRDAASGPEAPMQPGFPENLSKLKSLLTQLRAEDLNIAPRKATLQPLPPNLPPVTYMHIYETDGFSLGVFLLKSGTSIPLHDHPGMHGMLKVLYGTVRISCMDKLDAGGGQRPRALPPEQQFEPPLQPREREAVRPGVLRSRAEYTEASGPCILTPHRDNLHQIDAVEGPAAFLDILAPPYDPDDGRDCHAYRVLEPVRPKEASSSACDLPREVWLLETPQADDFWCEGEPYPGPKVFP

Test [3] deals with T3, ADO-Y87A, N-terminally His-tagged and biotinylated (human, UniProt Q96SZ5 1-270, Y87A, biotin (biotinylated during expression)).
T3 construct: 2-aminoethanethiol dioxygenase (ADO), human, UniProt Q96SZ5, full length, site-directed mutant; source: E. coli Rosetta2(DE3), purified (Ni-NTA, SEC); not shown: biotinylation tag (from the vector pQE80L-Navi), N-terminal, kept
T3 sequence (looked up): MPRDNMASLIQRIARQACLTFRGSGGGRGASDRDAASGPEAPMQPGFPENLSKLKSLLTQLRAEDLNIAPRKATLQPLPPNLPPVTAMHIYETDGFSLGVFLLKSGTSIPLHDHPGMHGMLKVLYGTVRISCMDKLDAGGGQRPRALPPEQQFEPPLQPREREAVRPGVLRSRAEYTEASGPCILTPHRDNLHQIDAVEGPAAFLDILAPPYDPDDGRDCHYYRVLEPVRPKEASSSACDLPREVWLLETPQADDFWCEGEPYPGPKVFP

The target of test [4] is T4, ADO-Y87F, N-terminally His-tagged and biotinylated (human, UniProt Q96SZ5 1-270, Y87F, biotin (biotinylated during expression)).
T4 construct: 2-aminoethanethiol dioxygenase (ADO), human, UniProt Q96SZ5, full length, site-directed mutant; source: E. coli Rosetta2(DE3), purified (Ni-NTA, SEC); not shown: biotinylation tag (from the vector pQE80L-Navi), N-terminal, kept
T4 sequence (looked up): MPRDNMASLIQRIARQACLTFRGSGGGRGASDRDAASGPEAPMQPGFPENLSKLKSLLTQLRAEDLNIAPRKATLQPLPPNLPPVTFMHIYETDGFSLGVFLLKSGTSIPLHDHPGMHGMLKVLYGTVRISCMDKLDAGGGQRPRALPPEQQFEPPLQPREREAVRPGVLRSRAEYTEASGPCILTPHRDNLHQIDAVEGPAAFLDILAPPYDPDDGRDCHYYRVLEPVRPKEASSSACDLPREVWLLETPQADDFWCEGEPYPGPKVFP

The target in test [5] is T5, ADO-F256A, N-terminally His-tagged and biotinylated (human, UniProt Q96SZ5 1-270, F256A, biotin (biotinylated during expression)).
T5 construct: 2-aminoethanethiol dioxygenase (ADO), human, UniProt Q96SZ5, full length, site-directed mutant; source: E. coli Rosetta2(DE3), purified (Ni-NTA, SEC); not shown: biotinylation tag (from the vector pQE80L-Navi), N-terminal, kept
T5 sequence (looked up): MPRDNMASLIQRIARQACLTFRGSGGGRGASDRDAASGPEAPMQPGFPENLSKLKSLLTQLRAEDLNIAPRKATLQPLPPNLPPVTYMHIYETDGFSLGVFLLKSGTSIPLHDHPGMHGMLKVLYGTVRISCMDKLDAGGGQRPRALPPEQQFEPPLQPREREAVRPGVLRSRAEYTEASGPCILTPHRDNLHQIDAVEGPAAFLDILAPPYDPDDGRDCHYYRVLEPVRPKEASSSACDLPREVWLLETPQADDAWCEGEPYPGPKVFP

B1: RGS5(2-15), synthetic peptide corresponding to the methionine excised N-terminus of RGS5, residues 2 to 15 (peptide, UniProt O15539 2-15, looked up)
peptide: CKGLAALPHSCLER
notes: regulator of G-protein signalling 5 (RGS5), residues 2 to 15 (N-terminal Cys exposed); UniProt O15539 is printed for the full-length human protein; also called 14-mer RGS5; source: synthetic peptide
In the case of B1, the Kd in test [1] was 42.7 µM and 46.3 µM and 52.3 µM; in test [2], 4.42 µM and 4.8 µM and 4.78 µM; in test [3], 1.48 µM and 1.65 µM and 1.84 µM; in test [4], 339 nM (2×) and 336 nM; in test [5], 0.717 µM and 0.753 µM and 0.714 µM.
